This note sets out measurements from US10648979B2, “Molecular probes for detecting gram-negative bacteria in vitro and in vivo” (priority 2014, dated 2020).

Read-outs that look alike come from different tables or passages of the source. Bridge positions count the residues as written; N and C are the ends. Square brackets hold non-standard residues; d marks the D form. Peptide text beside a SMILES is read from it. * marks the point of attachment. ξ: configuration not given here. X1 = CN(C)c1ccc2c(c1)Oc1cc(N(C)C)ccc1C21OC(=O)c2ccc(C(=O)*)cc21; MethylRed = CN(C)c1ccc(/N=N/c2ccccc2C(=O)*)cc1; NBD = O=[N+]([O-])c1ccc(*)c2nonc12; dDab = NCC[C@@H](N)C(=O)O; Dab = NCC[C@H](N)C(=O)O; AEEA = NCCOCCOCC(=O)O; ξDab = NCCC(N)C(=O)O; ξK = NCCCCC(N)C(=O)O; ξV = CC(C)C(N)C(=O)O; ξP = O=C(O)C1CCCN1; ξA = CC(N)C(=O)O

Data set [1] deals with Methicillin sensitive Staphylococcus aureus (MSSA). Nature of the data set: Elastase dependant bacterial labelling in co-culture of bacteria and isolated human neutrophils (confocal). In kind it is cell-based. The text has this:
FIG. 2A: Elastase dependant bacterial labelling scheme.
FIG. 2B: Elastase dependant bacterial labelling in vitro.
A first example of elastase sensitive probes (shown schematically in FIG. 2A) comprises methyl red (acting as a dark quencher) connected via the peptide sequence AAPV (acting as the linker) to 7-nitrobenz-2-oxa-1,3-diazole (NBD) and the ubiquicidin fragment UBI29-41 (together acting as the probe element). Accordingly, the NBD fluorescence is quenched by the methyl red and no fluorescent signal will be observed (i.e. the methyl red and NBD are acting as a FRET pair) and therefore, whether or not the probe is bound to any bacteria that may be present in the target area via UBI29-41, no signal is observed using confocal microscopy.
When the probe is in the presence of human neutrophil elastase (HNE), such as in inflamed tissue, HNE cleaves the peptide sequence of the linker, to thereby free the probe element from the methyl red quencher. Accordingly, the NBD fluorophore is no longer quenched and produces a fluorescent signal. In addition, due to the environmental sensitivity of the NBD, the signal produced is greatly amplified if the NBD is in a hydrophobic environment, such as within a cell membrane.

A short description of data set [2]: Rodent single dose intratracheal toxicity assessment. In kind it is in vivo, Mice. Details: Creatinine / Bilirubin / Albumin: unit not given here.
A short description of data set [3]: Stability in saline or BALF from patients with Acute Lung Injury (MALDI-TOF / FTMS). The note with it: incubated for 30 minutes. How it is done: FIG. 16: NBD-UBIdend is stable in ALI BALF. […] NBD-PMX is stable in ALI BALF.
Secondly we assessed stability of the probes in broncholalveolar lavage fluid (BALF) from patients with Acute Lung Injury (ALI) by Fourier Transform Mass Spectrometry (FTMS) and Matrix-Assisted Laser Desorption/Ionization Time-of-Flight Mass Spectrometry (MALDI-TOF MS) analysis. NBD-UBINle, NBD-UBIdend and NBD-PMX were incubated for 30 minutes with BALF (FIG. 16).
In vitro labelling was assessed on benchtop confocal in the presence of compound with bacteria and labelling was compared to NBD-UBINle which served as a reference control for bacterial labelling. […] For the ex vivo and in vivo ovine lung experiments each compound was assessed in a control lung segment (instilled with 2 ml PBS) or a bacterial segment (instilled with 2 ml of 2 optical density of bacteria). Following bacterial instillation, the compound was administered to the segment of interest and this was imaged by probe based confocal laser endomicroscopy (FCFM).
Probe was added to saline or pooled BALF from patients with ALI incubated for 30 minutes. A ZipTip (C-18, 0.2 μL) with 5 μL MeCN (with 0.1% TFA as an additive) followed by 20 μL of H2O was washed. The ZipTip was loaded with the sample, washed and eluted into 5 μL of 80% aq. MeCN (with 0.1% TFA as an additive). The sample was analysed by MALDI-TOF (PerSeptive Biosystems Voyager DETMSTR MALDI-TOF mass spectrometer (Applied Biosystems, Foster City, Calif.)).

For data set [4], the system named is human erythrocytes. Put plainly: Haemolysis assay. The note with it: up to 100 μM; 0.2% Triton-X = 100%.
Protocol: Positive control was 0.2% Triton-X and values corrected to represent 100% haemolysis for Triton-X.
Erythrocytes were isolated from freshly drawn, anticoagulated human blood and resuspended to 20 vol % in PBS (pH 7.4). In a 96-well microtiter plate, 100 μl of erythrocyte suspension was added to 100 μl of NLLP solution in PBS (prepared by 1:2 serial dilutions) or 100 μl of PBS in the case of negative controls. One-hundred percent haemolysis wells contained 100 μl of red cell suspension with 100 μl of 0.2 vol % Triton X-100. The plate was incubated for 1 h at 37° C., and then each well was diluted with 150 μl of PBS. The plate was then centrifuged at 1,200 g for 15 min, 100 μl of the supernatant from each well was transferred to a fresh microtiter plate, and A350 was measured. Percentage of haemolysis was determined as (A−A0)/(Atotal−A0)×100, where A is the absorbance of the test well, A0 the absorbance of the negative controls, and Atotal the absorbance of 100% haemolysis wells, all at 350 nm on a Biotek plate reader.
Data set [5] concerns activated neutrophils. The note with it: TAMRA signal (red). The text has this:
(§1) FIG. 3A: Elastase dependant bacterial labelling scheme. The fluorophore on the bacterial binding component is quenched by a different fluorophore of a longer wavelength meaning that no fluorescence is seen upon binding to bacteria. Cleavage of the elastase specific sequence AAPV liberates the bacterial binding component (PV-NBD-UBI) from the quencher (TAMRA). TAMRA reports the presence of activated neutrophils by endocytic uptake.
(§2) FIG. 3B: Elastase dependant bacterial labelling in vitro.

The subject of data set [6] is Pseudomonas aueriginosa (PA).
Excerpt: as §1, §2
In a second example, the probe comprises carboxytetramethylrhodamine (TAMRA, acting as a fluorescent quencher) connected to NBD and polymyxin (acting as the probe element) via the peptide sequence AAPV (acting as the linker). Accordingly, the NBD fluorescence is quenched by the TAMRA to give rise to a fluorescent signal from TAMRA (i.e. the TAMRA is accepting the energy absorbed by the NBD and is itself fluorescing, TAMRA and NBD are acting as a FRET pair). Accordingly, whether or not the polymyxin has bound to any bacteria that may be present, only a signal from the TAMRA is observed.

Data set [7] addresses elastase (Homo sapiens, UniProt P08246). Conditions: ex 525, Em 580.

Chain of elastase (P08246 30-247 limits assumed): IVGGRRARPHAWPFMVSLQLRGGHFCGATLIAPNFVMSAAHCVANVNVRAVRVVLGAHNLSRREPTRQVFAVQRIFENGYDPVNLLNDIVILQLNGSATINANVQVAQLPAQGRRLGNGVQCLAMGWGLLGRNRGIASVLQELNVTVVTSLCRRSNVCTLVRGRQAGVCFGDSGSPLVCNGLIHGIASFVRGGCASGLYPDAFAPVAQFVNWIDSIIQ

Turning to `CSCCC(NC(=O)C(CCCNC(=N)N)NC(=O)C(CCCNC(=N)N)NC(=O)C(CCCCN)NC(=O)C(C)NC(=O)C(CCCNC(=N)N)NC(=O)CNC(=O)C(NC(=O)COCCOCCNC(=O)C(CCCCNc1ccc([N+](=O)[O-])c2nonc12)NC(=O)C(NC(=O)C1CCCN1C(=O)C(C)NC(=O)C(C)NC(=O)c1ccccc1/N=N/c1ccc(N(C)C)cc1)C(C)C)C(C)O)C(=O)NC(CCC(N)=O)C(=O)NC(Cc1ccc(O)cc1)C(=O)NC(CC(N)=O)C(=O)NC(CCCNC(=N)N)C(=O)NC(CCCNC(=N)N)C(N)=O` (centres unmarked) [Example 1] (MethylRed-AAPVK(NBD)[AEEA]TGRAKRRMQYNRR-NH2; configuration not given here), in data set [1] (confocal, neutrophil derived HNE present), the “bacterial labelling in co-culture of bacteria and neutrophils” value is “ability of the probe to be cleaved by neutrophil derived HNE and to label bacteria”. In data set [1] (elastase inhibitor sivelestat added to the medium), the “bacterial labelling with elastase inhibitor” value is “no labelling was observed”.
In the case of `CCCC[C@H](NC(=O)[C@H](CCCNC(=N)N)NC(=O)[C@H](CCCNC(=N)N)NC(=O)[C@H](CCCCN)NC(=O)[C@H](C)NC(=O)[C@H](CCCNC(=N)N)NC(=O)CNC(=O)[C@@H](NC(=O)COCCOCCNc1ccc([N+](=O)[O-])c2nonc12)[C@@H](C)O)C(=O)N[C@@H](CCC(N)=O)C(=O)N[C@@H](Cc1ccc(O)cc1)C(=O)N[C@@H](CC(N)=O)C(=O)N[C@@H](CCCNC(=N)N)C(=O)N[C@@H](CCCNC(=N)N)C(=O)NCCOCCOCC(=O)NCCCOCC(COCCCNC(=O)COCCOCCNC(=O)[C@H](CCCNC(=N)N)NC(=O)[C@H](CCCNC(=N)N)NC(=O)[C@H](CC(N)=O)NC(=O)[C@H](Cc1ccc(O)cc1)NC(=O)[C@H](CCC(N)=O)NC(=O)[C@H](CCCC)NC(=O)[C@H](CCCNC(=N)N)NC(=O)[C@H](CCCNC(=N)N)NC(=O)[C@H](CCCCN)NC(=O)[C@H](C)NC(=O)[C@H](CCCNC(=N)N)NC(=O)CNC(=O)[C@@H](NC(=O)COCCOCCNc1ccc([N+](=O)[O-])c2nonc12)[C@@H](C)O)(COCCCNC(=O)COCCOCCNC(=O)[C@H](CCCNC(=N)N)NC(=O)[C@H](CCCNC(=N)N)NC(=O)[C@H](CC(N)=O)NC(=O)[C@H](Cc1ccc(O)cc1)NC(=O)[C@H](CCC(N)=O)NC(=O)[C@H](CCCC)NC(=O)[C@H](CCCNC(=N)N)NC(=O)[C@H](CCCNC(=N)N)NC(=O)[C@H](CCCCN)NC(=O)[C@H](C)NC(=O)[C@H](CCCNC(=N)N)NC(=O)CNC(=O)[C@@H](NC(=O)COCCOCCNc1ccc([N+](=O)[O-])c2nonc12)[C@@H](C)O)NC(N)=O` (some centres unmarked) [NBD-UBIdend], in data set [2] (48 hours), the ALP was 222.3 ± 80.3 u/l, the ALT is recorded as 24.0 ± 1.2 u/l, the Albumin stood at 22.3 ± 1.8 and the BALF was 477.1 ± 150.6 Cells/ul. Also, in data set [2] (48 hours), the Bilirubin stood at 2 ± 0, the Creatinine was determined as 8.3 ± 0.7, the “Cytospin (% of Neutrophils)” value is listed as 3.6% and the “Cytospin (% of Red Blood Cells)” value worked out at 0%. In data set [2] (48 hours), this compound came in with a PenH value of 0.5 ± 0.06. Moreover, the “Cytospin (% of Mononuclear cells)” value in data set [2] (48 hours, single intratracheal 100 μg/25 g mouse) came out at 96.4%. For the same compound, in data set [2] (14 days), the ALP was determined as 227.0 ± 27.1 u/l, the ALT is listed as 28.3 ± 1.9 u/l, the Albumin is recorded as 25.0 ± 1.2 and the BALF is given as 342.7 ± 6.5 Cells/ul. Further, in data set [2] (14 days), the Bilirubin was 2 ± 0, the Creatinine amounted to 9.0 ± 1.5, the “Cytospin (% of Neutrophils)” value amounted to 0% and the “Cytospin (% of Red Blood Cells)” value was determined as 0%. This compound also displayed a PenH value in data set [2] (14 days) of 0.5 ± 0.04. Moreover, in data set [2] (14 days, single intratracheal 100 μg/25 g mouse), the “Cytospin (% of Mononuclear cells)” value is given as 100%. The “organ toxicity (histology)” value in data set [2] (single instillation, 48 hours and 14 days, compared to PBS control) is “no organ toxicity”. Besides, in data set [2] (single intratracheal 100 μg/25 g mouse, 48 hours and 14 days), the toxicity entry is “no toxicity”. For the same compound, in data set [3], the “stability in ALI BALF” value is on record as “demonstrate stability”; the stability in saline entry is “readily identified in both saline and BALF incubated samples”. In addition, in data set [4], the red cell haemolysis result is “no red cell haemolysis”.
As to `CC(C)C[C@@H]1NC(=O)[C@@H](Cc2ccccc2)NC(=O)[C@@H](CCN)NC(=O)C(NC(=O)[C@H](CCN)NC(=O)[C@@H](NC(=O)COCCOCCNC(=O)C(CCCCNc2ccc([N+](=O)[O-])c3nonc23)NC(=O)C(NC(=O)C2CCCN2C(=O)C(C)NC(=O)C(C)NC(=O)c2ccc3c(c2)C2(OC3=O)c3ccc(N(C)C)cc3Oc3cc(N(C)C)ccc32)C(C)C)[C@@H](C)O)CCNC(=O)[C@@H]([C@H](C)O)NC(=O)[C@H](CCN)NC(=O)[C@H](CCN)NC1=O` (some centres unmarked) [TAMRA-AAPV-NBD-PMX] (X1-[ξA][ξA][ξP][ξV][ξK](NBD)[AEEA]T[Dab][ξDab][dDab][dF]L[Dab][Dab][dT]; lactam 9-C), the “labelling of activated neutrophils” value in data set [5] is given as “labelling of activated neutrophils (shown in red) in an elastase independent manner”. The bacterial labelling entry in data set [6] (activated neutrophils, NBD signal (green)) was “bacterial labelling (shown in green) in an elastase dependent manner”; in data set [6] (unactivated neutrophils) it was “no labelling in the presence of unactivated neutrophils”. For the same compound, in data set [7] (elastase inhibitor), the “fluorescence of TAMRA following cleavage, with elastase inhibitor” value is recorded as “inhibited with an elastase inhibitor”. The “fluorescence of TAMRA following cleavage” value in data set [7] (with elastase) was “increase in fluorescence of TAMRA-AA (cleaved compound) compared to TAMRA-AAPV-NBD-PMX in an elastase dependent manner”.
